Measurements taken from US20240417464A1 (published 2024).

Target: antibody-half molecule A7 with PF1H and PF1L-k0 (PF1H-DA303v2.n.HATF.B/PF1L-k0)
Assay: SPR (Biacore T200), about 50 RU of half molecule A captured on chip-bound biotinylated antigen peptide, half molecule B at 2.5 mg/mL as analyte (Example 10)
Method: The interaction between the obtained antibody-half molecules was analyzed using Biacore (registered trademark) T200. Biotin CAPture Kit, Series S (GE Healthcare) was used for the measurement, and HBS-EP+10X (GE Healthcare) diluted 1/10th was used as a running buffer. The measurement temperature was 25° C. For the sensor chip, Series S Sensor Chip CAP (GE Healthcare) onto which previously-biotinylated antigen peptides were allowed to interact and thereby immobilized was used. These chips were allowed to capture approximately 50 RU of the antibody-half molecule A of interest and then interact with the antibody-half molecule B of interest diluted with the running buffer at 2.5 mg/mL for 180 seconds at a flow rate of 30 μL/min, and measurement was carried out. The molar binding ratio was calculated based on the following Formula 2. The antibody-half molecule A captured on the chip was washed as described in the instructions attached to the kit, and the chip was regenerated and reused.
At this time, for the antibody-half molecule to be captured, PF1H (SEQ ID NO: 22), which is the H chain variable region portion of the anti-human IL6 receptor antibody described in WO 2009/041621, was used as the H chain variable region portion, PF1L (SEQ ID NO: 23), which is the L chain variable region portion of the anti-human IL6 receptor antibody described in WO 2009/041621, was used as the L chain variable region portion, and k0 was used as the L chain constant region portion. In addition, for the antibody-half molecules used as analytes, IC17H (SEQ ID NO: 24), which is the anti-KLH antibody described in WO 2015/174439, was used as the H chain variable region, IC17L (SEQ ID NO: 25), which is the anti-KLH antibody described in WO 2015/174439, was used as the L chain variable region, and k0 was used as L chain constant region.

antibody-half molecule A7 with PF1H and PF1L-k0 (PF1H-DA303v2.n.HATF.B/PF1L-k0), sequence (heavy, as listed by the source): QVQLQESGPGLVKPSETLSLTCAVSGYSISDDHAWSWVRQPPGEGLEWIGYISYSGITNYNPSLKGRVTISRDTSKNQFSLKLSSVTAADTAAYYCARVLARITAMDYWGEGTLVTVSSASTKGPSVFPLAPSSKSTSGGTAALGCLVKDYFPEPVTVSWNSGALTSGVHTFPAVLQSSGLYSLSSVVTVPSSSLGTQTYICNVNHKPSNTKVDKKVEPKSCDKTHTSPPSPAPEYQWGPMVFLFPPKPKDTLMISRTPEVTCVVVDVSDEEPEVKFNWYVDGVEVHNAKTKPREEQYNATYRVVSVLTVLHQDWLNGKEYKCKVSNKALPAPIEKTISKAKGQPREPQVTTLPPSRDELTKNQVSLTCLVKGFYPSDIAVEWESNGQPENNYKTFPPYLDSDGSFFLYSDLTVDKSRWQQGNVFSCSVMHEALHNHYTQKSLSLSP

molar binding ratio: 0.32 molar ratio
B1: antibody-half molecule B7 with IC17H and IC17L-k0 (IC17H-DB220v2.n.HATF.A/IC17L-k0) (antibody, human IgG1, kappa)
heavy: QVQLQQSGPQLVRPGASVKISCKASGYSFTSYWMHWVNQRPGQGLEWIGMIDPSYSETRLNQKFKDKATLTVDKSSSTAYMQLSSPTSEDSAVYYCALYGNYFDYWGQGTTLTVSSASTKGPSVFPLAPSSKSTSGGTAALGCLVKDYFPEPVTVSWNSGALTSGVHTFPAVLQSSGLYSLSSVVTVPSSSLGTQTYICNVNHKPSNTKVDKKVEPKSCDKTHTSPPSPAPELLGGPSVFLFPPKPKDTLMISRTPEVTCVVVDVSHEEPEVKFNWYVDGVEVHNAKTKPREEQYNSTYRVVSVLTVLHQDWLNGKEYKCKVSNDALPMPIEETISKAKGQPREPQVYTLPPSRDELTKNQVHLTCLVKGFYPSDIAVEWESNGQPENNYKTTPPYLDSDGSFALYSDLTVDKSRWQQGNVFSCSVMHEALHNHYTQKSLSLSP
light: DIQMTQSSSSFSVSLGDRVTITCKASEDIYNRLAWYQQKPGNAPRLLISGATSLETGVPSRFSGSGSGKDYTLSITSLQTEDVATYYCQQYWSTPYTFGGGTKLEVKRTVAAPSVFIFPPSDEQLKSGTASVVCLLNNFYPREAKVQWKVDNALQSGNSQESVTEQDSKDSTYSLSSTLTLSKADYEKHKVYACEVTHQGLSSPVTKSFNRGEC
